The values that follow are results of earlier work, collected in publication PMC5074778.

In this data set the target is IL-6 receptor (Homo sapiens) (UniProt P08887).
Sequence of UniProt P08887 (P08887 20-365): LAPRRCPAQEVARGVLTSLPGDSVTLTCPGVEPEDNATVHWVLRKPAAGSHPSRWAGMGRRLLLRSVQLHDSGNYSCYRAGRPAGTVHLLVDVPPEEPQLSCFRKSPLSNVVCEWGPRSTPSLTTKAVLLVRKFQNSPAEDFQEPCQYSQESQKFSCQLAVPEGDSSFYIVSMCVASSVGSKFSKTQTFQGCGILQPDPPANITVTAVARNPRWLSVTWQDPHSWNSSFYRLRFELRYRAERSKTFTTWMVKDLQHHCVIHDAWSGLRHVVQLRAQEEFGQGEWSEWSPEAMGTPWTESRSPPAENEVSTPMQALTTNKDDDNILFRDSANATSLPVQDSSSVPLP

As for Tocilizumab, the Kd (commonly the concentration at which binding is half-saturated) is 2.5 nM.
